Source: US20220056124A1 (University of Texas, published 2022)

Legend:
[1] = biological target: T1, recombinant human endotrophin (77 amino acids at the carboxy-terminal of the COL6α3 chain, HEK293-expressed, … (human, UniProt P12111 3101-3177)); test: ELISA titration on plate-coated recombinant endotrophin, 4-parameter fit
T1 construct: the His-tag was removed by enterokinase, leaving the 77 amino acid endotrophin free of tags; also called ETP; recombinant endotrophin protein
Description: (§1) Antibody-antigen ELISA Binding Assay. Corning 96-well EIA/RIA plates were coated overnight at 4° C. with HEK293 expressed recombinant endotrophin (1 μg/mL) and blocked for 2 hr at 37° C. with 5% non-fat milk. After washing with PBST for 3 times, 100 μL of serial diluted anti-endotrophin antibodies were added and incubated for 45 min at 37° C. Subsequently, the plates were washed with PBST and incubated for 30 min with anti-rabbit or anti-human F(ab′)2 HRP-conjugated antibody (Jackson ImmunoResearch Laboratories). The immunoreactions were developed with TMB substrates (Sigma) and stopped by the addition of 2 M sulfuric acid before reading the plate at 450 nm.
(§2) Binding of endotrophin by monoclonal antibodies was first screened by ELISA using supernatants collected from the B cell cultures (FIG. 10). ELISA titration was used to determine the binding affinity of a panel of monoclonal antibodies to endotrophin antigen (FIG. 11). Binding constants (EC₅₀) of a panel of monoclonal antibodies were estimated using four-parameter curve fitting with Prism GraphPad (Table 3).

[2] = biological target: T1, recombinant human endotrophin (77 amino …); test: ELISA titration, plate coated with recombinant endotrophin, serially diluted antibody, HRP secondary antibody, OD450
Description: as §1, §2

[3] = biological target: T1, recombinant human endotrophin (77 amino …); test: BLI (Octet RED96)
[4] = biological target: T1, recombinant human endotrophin (77 amino …); test: BLI (Octet RED96), antibody on protein A biosensors, endotrophin 0.1-200 nM, 1:1 fit
Description: Following a short baseline in kinetics buffer, the loaded biosensors were exposed to a series of recombinant endotrophin protein at 0.1-200 nM and background subtraction was used to correct for sensor drifting. All experiments were performed with shaking at 1,000 rpm. Background wavelength shifts were measured from reference biosensors that were loaded only with antibody. Kinetic sensorgrams for each antibody are shown in FIGS. 12A&B. ForteBio's data analysis software was used to fit the data to a 1:1 binding model to extract an association rate and dissociation rate.

T1 sequence (P12111 3101-3177 limits assumed): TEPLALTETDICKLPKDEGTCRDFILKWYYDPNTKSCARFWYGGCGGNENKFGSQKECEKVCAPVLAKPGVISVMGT

Binder | EC50 [1] [µg/mL] | EC50 (read off the curve) [2] [µg/mL] | Kd [3] [nM] | Kd [4] [nM] | koff [4] [s⁻¹] | kon [4] [M⁻¹ s⁻¹]
ETP-mAb2 (antibody, V domains shown, Rabbit monoclonal) VH: EQSLEESEGGLVQPEGSLTLTCTASGFSFSRSDYMCWVRQAPGKGLEWIGWIDPGYSDTYYASWAQGRTTISKASSTTVTLQMTSLTVADTATYFCARDLGFDSNLWGPGTLVTISS VL: ELDLTQTPASVSEPVGGTVTIKCQASQSINSYLSWYQQKPGQPPKLLIYQASKLASGVPSRFKGSGSGTQFTLTISDLECADAATYYCQSYDYRISGSDGNVFGGGTNVEIK | 0.1 | ~0.1 | – | – | – | –
ETP-mAb4 (antibody, V domains shown, Rabbit monoclonal; also called parental rabbit ETPmAb4) VH: SSRVKESGGDLVKPGASLTLTCKASGFSFSSGYYICWVRQAPGKGLEWIACIYGGNNNPYYANWVNGRFTTSKTSSTTVTLQMTNLTGADTATYFCARKDINIGGAYELWGPGTLVTISS VL: ELVMTQTPASVSEPVGGTVTINCQASQSISSSYLSWYQQKPGQPPKLLIYKASTLASGVPSRFKGSGSGTQFSLTISDLECADAATYYCQYSDWANSYGNAFGGGTEVVVK | 0.054 | ~0.06 | 1.62 | 1.75 | 0.000249 | 142000
ETP-mAb1 (antibody, V domains shown, Rabbit monoclonal) VH: QSVKESGGDLVKPGASLTLTCTASGIDFSAGYYMCWVRQAPGKGLELIACIYAGRSLNTFYASWAKGRFTISRASSTTVTLAMTSLTAADTATYFCARDGASSGYYFKLWGPGTLVTISS VL: ELDMTQTPASVEVAVGGTVTIKCQASQSIGSNLAWYQQKPGQRPNVLIYDASNLASGVSSRFKGSGSGTQFTLTISGGECADAATYYCQQGYSDNYLDNAFGGGTEVVVK | 0.023 | ~0.02 | – | – | – | –
ETP-mAb4.1 (humanized ETP-hMab4) (antibody, human IgG1, V domains shown, Humanized; tied by the number 4.1; also called ENT-hMab4.1) VH: EVQLLESGGGLVQPGGSLRLSCAASGFSFSSGYYICWVRQAPGKGLEWIACIYGGNNNPYYANWVNGRFTISRDNSKNTLYLQMNSLRAEDTAVYYCARKDINIGGAYELWGQGTLVTVSS VL: DIQMTQSPSSLSASVGDRVTITCQASQSISSSYLSWYQQKPGKAPKLLIYKASTLASGVPSRFSGSGSGTDFTLTISSLQPEDFATYYCQYSDWANSYGNAFGGGTKVEIK | – | – | – | 2.03 | 0.000235 | 116000
ETP-mAb4.4 (humanized ETP-hMab4) (antibody, human IgG1, V domains shown, also called ENT-hMab4.4) VH: EVQLLESGGGLVQPGGSLRLSCAASGFSFSSGYYICWVRQAPGKGLEWIACIYGGNNNPYYANWVNGRFTTSRDNSKNTLYLQMNSLRAEDTAVYYCARKDINIGGAYELWGQGTLVTVSS VL: DIQMTQSPSSLSASVGDRVTITCQASQSISSSYLSWYQQKPGKAPKLLIYKASTLASGVPSRFSGSGSGTDFTLTISSLQPEDFATYYCQYSDWANSYGNAFGGGTKVEIK | – | – | – | 2.53 | 0.000328 | 130000
ETP-mAb4.2 (humanized ETP-hMab4) (antibody, human IgG1, V domains shown, also called ENT-hMab4.2) VH: EVQLLESGGGLVQPGGSLRLSCAASGFSFSSGYYICWVRQAPGKGLEWIACIYGGNSNPYYANWVNGRFTISRDNSKNTLYLQMNSLRAEDTAVYYCARKDINIGGAYELWGQGTLVTVSS VL: DIQMTQSPSSLSASVGDRVTITCQASQSISSSYLSWYQQKPGKAPKLLIYKASTLASGVPSRFSGSGSGTDFTLTISSLQPEDFATYYCQYSDWANSYGNAFGGGTKVEIK | – | – | – | 2.48 | 0.000305 | 123000

Second part, the binder after the results:

EC50 [1] [µg/mL] | EC50 (read off the curve) [2] [µg/mL] | Kd [3] [nM] | Kd [4] [nM] | koff [4] [s⁻¹] | kon [4] [M⁻¹ s⁻¹] | Binder
0.142 | ~0.1 | – | – | – | – | ETP-mAb10 (antibody, V domains shown, Rabbit monoclonal) VH: QSLEESGGGLVQPEGSLTLTCTASGFSFSRGDYMCWVRQAPGKGLEWIGWIDVGRDNDSYYATWAKGRFSISKTSSTTVTLQMTSLTVADTATYFCARDLGFDTNLWGPGTLVTVSS VL: ELDMTQTPASVSAAVGGTVTINCQASQNINSWLSWYQQKPGQPPKLLIYQASKLASGVPSRLKGSGSGTQFSLTISDLECADGATYYCQSYDYRSSGNGGNVFGGGTEVEIK
0.306 | ~0.3 | – | – | – | – | ETP-mAb72 (antibody, V domains shown, Rabbit monoclonal) VH: QSLEESGGGLVQPEGSLTLTCTASGFSFSRGDYVCWVRQAPGKGLEWIGWIDVGSVIESYYATWAKGRFTISKTSSTTVTLQMTSLTVADTATYFCARDLGFDTNLWGPGTLVTVSS VL: ELVMTQTPASVEAAVGGTVTINCQASESISIYLNWYQQKPGQPPKLLIYQASKLASGVPSRFKGSGSGTEFTLTISDLECADAATYYCQSHDYRIGRSDCNVFGGGTNVEIK
0.359 | ~0.4 | – | – | – | – | ETP-mAb11 (antibody, V domains shown, Rabbit monoclonal) VH: QSVKESEGGLVQPEGSLTLTCTASGFSFSSSYYMCWVRQAPGKGLEWIGCIYLGNNENTAYTSWAKGRFTISKTSSTTVTLQMTSLTAADTTTYFCARDTSGGSDYYFGLWGPGTLVTISS VL: ELDLTQTPASVEVAVGGTVTIKCQASHRIKTYLAWYQQKPGQPPKLLIYGASTLASGVPSRFKGSGSGTQFTLTISGVECADAATYYCQQGYSDGNVDNVFGGGTEVEIK
0.053 | ~0.06 | – | – | – | – | ETP-mAb6 (antibody, V domains shown, Rabbit monoclonal) VH: QSVKESEGGLVQPEGSLTLTCTASGFSFSNSDYMCWVRQAPGKGLEWIGWIDLVGNTNSYYASWAKGRFTISKTSSTTVALQMTSLTVADTATYFCARDLGFDTNLWGPGTLVTVSS VL: ELDLTQTPASVSAAVGGTVTINCQASQNINSWLSWYQQKPGQRPKLLIYQASKLPSGVPSRFKGSGSGTQFTLTISDLECADAATYYCQSHDYRTTGSYGNVFGGGTEVEIK
– | – | – | 1.92 | 0.000223 | 116000 | ETP-mAb4.5 (humanized ETP-hMab4) (antibody, human IgG1, V domains shown, also called ENT-hMab4.5) VH: EVQLLESGGGLVQPGGSLRLSCAASGFTFSSGYYICWVRQAPGKGLEWIACIYGGNSNPYYANWVNGRFTISRDNSKNTLYLQMNSLRAEDTAVYYCARKDINIGGAYELWGQGTLVTVSS VL: DIQMTQSPSSLSASVGDRVTITCQASQSISSSYLSWYQQKPGKAPKLLIYKASTLASGVPSRFSGSGSGTDFTLTISSLQPEDFATYYCQYSDWANSYGNAFGGGTKVEIK
